These results are taken from US5633451.

For this experiment, the target named is Dendroides canadensis thermal hysteresis proteins (purified THPs).
For Gelatin, the Thermal Hysteresis (°C.) of a 4 mg/ml THP solution was 3.13 °C.
Tipula ice-nucleator protein PIN returned a Thermal Hysteresis (°C.) of a 4 mg/ml THP solution of 3.98 °C.
Tipula lipoprotein ice-nucleator (LPIN) gave a Thermal Hysteresis (°C.) of a 4 mg/ml THP solution of 3.49 °C.
